The source of these data is patent US20240270821A1, “GIP/GLP1/GCG TRI-RECEPTOR AGONISTS AND USES THEREOF” (priority 2023, published 2024).

What all share (assay): cell-based or functional assay
The target in assay [1] is hGLP-1R (Homo sapiens, UniProt P43220).
Assay [2] concerns the target T1, human GIP receptor (human) (UniProt P48546).
T1 sequence (looked up): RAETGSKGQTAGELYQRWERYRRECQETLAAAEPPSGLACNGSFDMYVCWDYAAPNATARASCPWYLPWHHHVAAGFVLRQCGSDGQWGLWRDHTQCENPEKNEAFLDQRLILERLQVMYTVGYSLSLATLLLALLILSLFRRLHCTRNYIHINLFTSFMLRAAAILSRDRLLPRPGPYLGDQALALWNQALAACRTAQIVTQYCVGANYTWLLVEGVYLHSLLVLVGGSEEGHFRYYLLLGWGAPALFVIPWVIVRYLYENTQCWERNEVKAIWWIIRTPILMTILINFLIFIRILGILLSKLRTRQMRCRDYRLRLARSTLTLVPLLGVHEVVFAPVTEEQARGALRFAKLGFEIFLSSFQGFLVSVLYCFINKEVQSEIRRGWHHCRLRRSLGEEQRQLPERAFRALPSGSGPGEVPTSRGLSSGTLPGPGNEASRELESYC

The target in assay [3] is human glucagon receptor (human) (UniProt P47871).
human glucagon receptor (human), sequence (P47871 26-477): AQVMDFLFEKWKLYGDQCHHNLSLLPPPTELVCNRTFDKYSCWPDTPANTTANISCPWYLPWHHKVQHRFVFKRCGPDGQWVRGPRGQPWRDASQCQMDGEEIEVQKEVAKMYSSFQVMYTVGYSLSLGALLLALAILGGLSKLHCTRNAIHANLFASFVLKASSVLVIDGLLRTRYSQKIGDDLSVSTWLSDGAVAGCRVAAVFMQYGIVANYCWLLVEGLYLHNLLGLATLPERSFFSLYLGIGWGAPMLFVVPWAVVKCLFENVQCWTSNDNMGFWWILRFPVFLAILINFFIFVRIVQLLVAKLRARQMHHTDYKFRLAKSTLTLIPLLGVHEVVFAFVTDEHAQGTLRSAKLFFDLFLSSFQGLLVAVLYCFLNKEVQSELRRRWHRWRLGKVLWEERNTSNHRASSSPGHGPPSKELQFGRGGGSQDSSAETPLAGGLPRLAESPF

hGLP-1R, sequence (P43220 24-463): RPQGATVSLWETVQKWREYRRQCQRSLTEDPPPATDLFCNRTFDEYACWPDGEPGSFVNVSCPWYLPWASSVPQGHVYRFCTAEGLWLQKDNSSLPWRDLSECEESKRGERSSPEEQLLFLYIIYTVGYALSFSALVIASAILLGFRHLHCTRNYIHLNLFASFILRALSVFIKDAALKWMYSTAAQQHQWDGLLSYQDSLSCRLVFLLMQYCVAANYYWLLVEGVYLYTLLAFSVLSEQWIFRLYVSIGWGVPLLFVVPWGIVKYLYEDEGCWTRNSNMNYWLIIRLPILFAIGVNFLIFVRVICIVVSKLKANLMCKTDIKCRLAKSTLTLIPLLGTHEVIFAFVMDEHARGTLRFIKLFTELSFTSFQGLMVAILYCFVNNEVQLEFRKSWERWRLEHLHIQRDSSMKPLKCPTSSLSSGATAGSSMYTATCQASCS

B1: Example 995 (peptide)
chain: YXQGTFTSDXSXXLDXKAQXQFIEXLLAGGPSSGAPPPSGSEE
modifications: non-natural residues, (γGlu)2-diacid acylated Lys, C-terminal amide; synthetic construct; SITE 2: note = 2-Aminoisobutyric Acid; SITE 10: note = 3-(4-Pyridyl)-L-alanine; SITE 12: note = L-ornithine; SITE 13: note = alpha-methyl-leucine; SITE 16: note = L-ornithine; SITE 17: note = Lysine is chemically modified through conjugation of the epsilon-amino group of the Lys
B1: the cAMP Rel EC50, nM (1% HSA) is 1660 nM in assay [1], 6.12 nM in assay [2] and 295 nM in assay [3].

B2: Example 997 (peptide)
chain: YXQGTFTSDXSXXLDXKAQXXFIEXLLAGGPSSGAPPPSGSEE
modifications: non-natural residues; lipidated Lys (γGlu)2-C18 diacid; C-term amide; synthetic construct; SITE 2: note = 2-Aminoisobutyric Acid; SITE 10: note = 3-(4-Pyridyl)-L-alanine; SITE 12: note = L-ornithine; SITE 13: note = alpha-methyl-leucine; SITE 16: note = L-ornithine; SITE 17: note = Lysine is chemically modified through conjugation of the epsilon-amino group of the Lys
Regarding B2, the values for the cAMP Rel EC50, nM (1% HSA) in assay [1], in assay [2] and in assay [3] were 1880 nM, 27.8 nM and 527 nM, respectively.

B3: Example 1002 (peptide)
chain: YXQGTFTSDXSXXLDXKAQXQFIEYLLAGGPSSGAPPPSGSEE
modifications: non-natural residues; (γGlu)2-C18 diacid on Lys; C-terminal amide; synthetic construct; SITE 2: note = 2-Aminoisobutyric Acid; SITE 10: note = 3-(4-Pyridyl)-L-alanine; SITE 12: note = L-ornithine; SITE 13: note = alpha-methyl-leucine; SITE 16: note = L-ornithine; SITE 17: note = Lysine is chemically modified through conjugation of the epsilon-amino group of the Lys
B3: the cAMP Rel EC50, nM (1% HSA) was found to be 1290 nM in assay [1], 11.6 nM in assay [2] and 197 nM in assay [3].

B4: Example 992 (peptide)
chain: YXQGTFTSDXSXXLDXKAQXQFIEXLIAGGPSSGAPPPSGSEE
modifications: non-natural residues (Aib, 4Pal, Orn, Me4Pal, αMeY); lipidated Lys; C-amide; synthetic construct; SITE 2: note = 2-Aminoisobutyric Acid; SITE 10: note = 3-(4-Pyridyl)-L-alanine; SITE 12: note = L-ornithine; SITE 13: note = alpha-methyl-leucine; SITE 16: note = L-ornithine; SITE 17: note = Lysine is chemically modified through conjugation of the epsilon-amino group of the Lys
Take B4: the cAMP Rel EC50, nM (1% HSA) in assay [1] came to 643 nM; in assay [2], 12.5 nM; in assay [3], 863 nM.

B5: Example 1004 (peptide)
chain: YXQGTFTSDXSXXLDXKAQXXFIEYLLAGGPSSGAPPPSGSEE
modifications: non-natural residues; C18 diacid-(γ-Glu)2 acyl on Lys; C-terminal amide; synthetic construct; SITE 2: note = 2-Aminoisobutyric Acid; SITE 10: note = 3-(4-Pyridyl)-L-alanine; SITE 12: note = L-ornithine; SITE 13: note = alpha-methyl-leucine; SITE 16: note = L-ornithine; SITE 17: note = Lysine is chemically modified through conjugation of the epsilon-amino group of the Lys
For the molecule B5, the cAMP Rel EC50, nM (1% HSA) in assay [1] amounted to 973 nM; in assay [2], 35.4 nM; in assay [3] it was 237 nM.

B6: Example 1006 (peptide)
chain: YXQGTFTSDXSQXLDXKAQXQFIEYLLAGGPSSGAPPPSGSEE
modifications: synthetic construct; SITE 2: note = 2-Aminoisobutyric Acid; SITE 10: note = 3-(4-Pyridyl)-L-alanine; SITE 13: note = alpha-methyl-leucine; SITE 16: note = L-ornithine; SITE 17: note = Lysine is chemically modified through conjugation of the epsilon-amino group of the Lysine side chain with (gamma-Gl)
Consider B6, for which the Relative cAMP EC50 in assay [1] was determined as 5.12 nM; in assay [2], 0.109 nM; in assay [3] it was 4.28 nM. Also, the cAMP Rel EC50, nM (1% HSA) in assay [1] amounted to 574 nM; in assay [2], 11.8 nM; in assay [3], 315 nM.

B7: Example 994 (peptide)
chain: YXQGTFTSDXSXXLDXKAQXXFIEXLIAGGPSSGAPPPSGSEE
modifications: Lys acylated with (γGlu)2-C18 diacid; non-natural residues; C-amide; synthetic construct; SITE 2: note = 2-Aminoisobutyric Acid; SITE 10: note = 3-(4-Pyridyl)-L-alanine; SITE 12: note = L-ornithine; SITE 13: note = alpha-methyl-leucine; SITE 16: note = L-ornithine; SITE 17: note = Lysine is chemically modified through conjugation of the epsilon-amino group of the Lys
Consider B7, for which the cAMP Rel EC50, nM (1% HSA) was found to be 395 nM in assay [1], 30.8 nM in assay [2] and 1050 nM in assay [3].

B8: Example 1005 (peptide)
chain: YXQGTFTSDXSQXLDXKAQXQFIEYLIAGGPSSGAPPPSGSEE
modifications: not fully specified; synthetic construct; SITE 2: note = 2-Aminoisobutyric Acid; SITE 10: note = 3-(4-Pyridyl)-L-alanine; SITE 13: note = alpha-methyl-leucine; SITE 16: note = L-ornithine; SITE 17: note = Lysine is chemically modified through conjugation of the epsilon-amino group of the Lysine side chain with (gamma-Gl)
On to B8, for which the results for the Relative cAMP EC50 in assay [1], in assay [2] and in assay [3] were 1.48 nM, 0.152 nM and 9.46 nM, respectively. Further, the cAMP Rel EC50, nM (1% HSA) in assay [1] was 171 nM; in assay [2] it was 14.5 nM; in assay [3] it was 1670 nM.

B9: Example 996 (peptide)
chain: YXQGTFTSDXSXXLDXKAQXEFIEXLLAGGPSSGAPPPSGSEE
modifications: acylated lysine (γ-Glu)2 C18 diacid; non-natural residues; C-terminal amide; synthetic construct; SITE 2: note = 2-Aminoisobutyric Acid; SITE 10: note = 3-(4-Pyridyl)-L-alanine; SITE 12: note = L-ornithine; SITE 13: note = alpha-methyl-leucine; SITE 16: note = L-ornithine; SITE 17: note = Lysine is chemically modified through conjugation of the epsilon-amino group of the Lys
Take B9: the cAMP Rel EC50, nM (1% HSA) was 4810 nM in assay [1], 11.2 nM in assay [2] and 1160 nM in assay [3].

B10: Example 1000 (peptide)
chain: YXQGTFTSDXSXXLDXKAQXQFIEYLIAGGPSSGAPPPSGSEE
modifications: Lys acylated with (γGlu)2-C18 diacid; non-natural residues; C-amide; synthetic construct; SITE 2: note = 2-Aminoisobutyric Acid; SITE 10: note = 3-(4-Pyridyl)-L-alanine; SITE 12: note = L-ornithine; SITE 13: note = alpha-methyl-leucine; SITE 16: note = L-ornithine; SITE 17: note = Lysine is chemically modified through conjugation of the epsilon-amino group of the Lys
For B10, the cAMP Rel EC50, nM (1% HSA) in assay [1] amounted to 279 nM; in assay [2], 15.5 nM; in assay [3] it was 501 nM.

B11: Example 1003 (peptide)
chain: YXQGTFTSDXSXXLDXKAQXEFIEYLLAGGPSSGAPPPSGSEE
modifications: (γGlu)2-C18 diacid on Lys; non-natural residues; amide; synthetic construct; SITE 2: note = 2-Aminoisobutyric Acid; SITE 10: note = 3-(4-Pyridyl)-L-alanine; SITE 12: note = L-ornithine; SITE 13: note = alpha-methyl-leucine; SITE 16: note = L-ornithine; SITE 17: note = Lysine is chemically modified through conjugation of the epsilon-amino group of the Lys
Regarding B11, the cAMP Rel EC50, nM (1% HSA) was found to be 1950 nM in assay [1], 15.9 nM in assay [2] and 371 nM in assay [3].

B12: Example 993 (peptide)
chain: YXQGTFTSDXSXXLDXKAQXEFIEXLIAGGPSSGAPPPSGSEE
modifications: non-natural residues; lipidated Lys (γGlu)2-C18 diacid; C-term amide; synthetic construct; SITE 2: note = 2-Aminoisobutyric Acid; SITE 10: note = 3-(4-Pyridyl)-L-alanine; SITE 12: note = L-ornithine; SITE 13: note = alpha-methyl-leucine; SITE 16: note = L-ornithine; SITE 17: note = Lysine is chemically modified through conjugation of the epsilon-amino group of the Lys
On to B12, for which the cAMP Rel EC50, nM (1% HSA) in assay [1] came to 1210 nM; in assay [2], 14.5 nM; in assay [3], 1860 nM.

B13: Example 96 (peptide)
chain: YXQGTFTSDFSXXLDKKAQXQFIEYLLAGGPSSGAPPPEGS
modifications: synthetic construct; SITE 2: note = 2-Aminoisobutyric Acid; SITE 12: note = L-ornithine; SITE 13: note = alpha-methyl-leucine; SITE 17: note = Lysine is chemically modified through conjugation of the epsilon-amino group of the Lysine side chain with (2-[2-(2-Amino-ethoxy)-ethoxy]-acetyl)-(gamma-Glu)
For the molecule B13, the Relative cAMP EC50 in assay [1] was found to be 3.92 nM; in assay [2], 0.456 nM; in assay [3], 14.1 nM. Also, the cAMP Rel EC50, nM (in the presence of 1% HSA) turned out to be 836 nM in assay [1], 49.3 nM in assay [2] and 2150 nM in assay [3].
